Legend:
Test in all cases: purified protein
Format in all cases: biochemical, uncultured Sphingomonas sp.
[1] = system: T1, CCCC(=O)Oc1ccc([N+](=O)[O-])cc1; conditions: 50 mM potassium phosphate pH 7.0, 0.3% Triton X-100, 30 °C, up to 5% DMSO-acetonitrile
T1 construct: full length, 324 residues, N-terminal His6 tag (p15TV-L), expressed in E. coli BL21(DE3), Ni-NTA purified; homodimer

[2] = system: T2, CCCCCCCCCCCC(=O)Oc1ccc([N+](=O)[O-])cc1; conditions: 50 mM potassium phosphate pH 7.0, 0.3% Triton X-100, 30 °C, up to 7.5% DMSO-acetonitrile
T2 construct: full length, 324 residues, N-terminal His6 tag (p15TV-L), expressed in E. coli BL21(DE3), Ni-NTA purified; homodimer

[3] = system: T3, CC(=O)Oc1ccc([N+](=O)[O-])cc1; conditions: 50 mM potassium phosphate pH 7.0, 0.3% Triton X-100, 30 °C, up to 5% DMSO-acetonitrile
T3 construct: full length, 324 residues, N-terminal His6 tag (p15TV-L), expressed in E. coli BL21(DE3), Ni-NTA purified; homodimer

Work on EH0 (uncultured Sphingomonas sp.) yielded a Km [1] of 1080 ± 180 µM, a Vmax [1] of 253 µM/min and a kcat [1] of 0.602 ± 0.033 s⁻¹. The kcat/Km [1] was 558 M⁻¹ s⁻¹, the Km [2] was 1000 ± 280 µM and the Vmax [2] was 25.6 µM/min. It also gave a kcat [2] of 0.0608 ± 0.00433 s⁻¹, a kcat/Km [2] of 61 M⁻¹ s⁻¹ and a Km [3] of 1610 ± 120 µM. It also gave a Vmax [3] of 292 µM/min, a kcat [3] of 0.694 ± 0.0182 s⁻¹ and a kcat/Km [3] of 430 M⁻¹ s⁻¹.

Reference: paper PMC9888213, “The Mobility of the Cap Domain Is Essential for the Substrate Promiscuity of a Family IV Esterase from Sorghum Rhizosphere Microbiome” (Applied and Environmental Microbiology, 2023)
